Test [1] has as its target PD-1 on Jurkat/PD-1细胞(Promega) (UniProt Q15116 25-288, limits assumed). The test can be described thus: cell-based or functional assay.
Test [2] has as its target T1, 人PD-1蛋白(北京百普赛斯，货号PD1-H5221) (human, UniProt Q15116 25-167).
T1 construct: Bought recombinant protein coated on the ELISA plate; also called PD-1抗原
Briefly: binding ELISA on coated PD-1 protein. Background: ELISA stands for enzyme-linked immunosorbent assay.

B1: 抗PD-1/PSCK9-2 (bispecific antibody, human IgG4 S228P, kappa)
heavy: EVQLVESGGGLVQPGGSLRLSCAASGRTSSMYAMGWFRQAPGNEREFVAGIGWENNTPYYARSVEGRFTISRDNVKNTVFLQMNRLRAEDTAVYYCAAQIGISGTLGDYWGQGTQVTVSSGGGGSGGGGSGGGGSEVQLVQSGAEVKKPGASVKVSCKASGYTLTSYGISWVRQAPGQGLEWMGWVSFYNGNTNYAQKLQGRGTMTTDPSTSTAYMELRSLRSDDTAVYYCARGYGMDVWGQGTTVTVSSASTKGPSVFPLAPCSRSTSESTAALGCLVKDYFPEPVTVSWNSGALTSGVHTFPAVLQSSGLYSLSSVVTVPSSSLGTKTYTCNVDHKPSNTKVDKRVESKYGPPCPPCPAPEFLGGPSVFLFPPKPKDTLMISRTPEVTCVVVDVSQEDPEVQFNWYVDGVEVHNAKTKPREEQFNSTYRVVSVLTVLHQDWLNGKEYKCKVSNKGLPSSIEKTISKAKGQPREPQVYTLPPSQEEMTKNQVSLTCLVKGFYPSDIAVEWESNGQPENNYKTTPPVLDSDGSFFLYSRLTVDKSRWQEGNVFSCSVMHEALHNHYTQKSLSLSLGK
light: ESALTQPASVSGSPGQSITISCTGTSSDVGGYNSVSWYQQHPGKAPKLMIYEVSNRPSGVSNRFSGSKSGNTASLTISGLQAEDEADYYCNSYTSTSMVFGGGTKLTVLRTVAAPSVFIFPPSDEQLKSGTASVVCLLNNFYPREAKVQWKVDNALQSGNSQESVTEQDSKDSTYSLSSTLTLSKADYEKHKVYACEVTHQGLSSPVTKSFNRGEC
notes: also called antiPD-1/PSCK9-2; 抗PD-1/PCSK9-2
Take B1: the “EC50, PD-1报告基因法” value in test [1] was 4 µg/mL. In addition, in test [2], the EC50 (usually the concentration that produces a half-maximal response) came to 0.0641 µg/mL.

B2: 抗PD-1/IL-8-2 (bispecific antibody, human IgG4 S228P, kappa)
heavy: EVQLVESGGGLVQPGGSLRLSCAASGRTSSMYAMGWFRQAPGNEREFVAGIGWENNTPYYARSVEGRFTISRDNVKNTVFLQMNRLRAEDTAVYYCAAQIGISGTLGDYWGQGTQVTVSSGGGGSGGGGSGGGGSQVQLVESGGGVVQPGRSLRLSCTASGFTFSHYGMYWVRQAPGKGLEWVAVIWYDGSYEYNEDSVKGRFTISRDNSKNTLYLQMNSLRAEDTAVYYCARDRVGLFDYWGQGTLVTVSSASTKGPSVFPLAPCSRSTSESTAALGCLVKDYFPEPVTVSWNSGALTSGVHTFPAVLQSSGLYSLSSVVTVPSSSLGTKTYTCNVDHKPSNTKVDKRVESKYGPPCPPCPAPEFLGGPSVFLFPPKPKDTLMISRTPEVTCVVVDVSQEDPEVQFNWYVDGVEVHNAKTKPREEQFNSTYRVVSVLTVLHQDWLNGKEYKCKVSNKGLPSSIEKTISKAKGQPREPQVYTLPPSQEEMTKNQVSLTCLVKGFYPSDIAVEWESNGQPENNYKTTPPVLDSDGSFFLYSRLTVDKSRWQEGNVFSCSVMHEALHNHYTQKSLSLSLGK
light: EIVLTQSPGTLSLSPGERATLSCRASQSISSSYLAWYQQKPGQAPRLLIYGPSSRATGIPDRFSGSGSGTDFTLTISRLEPEDFAVYYCQQYAGSLTFGPGTKVDIKRTVAAPSVFIFPPSDEQLKSGTASVVCLLNNFYPREAKVQWKVDNALQSGNSQESVTEQDSKDSTYSLSSTLTLSKADYEKHKVYACEVTHQGLSSPVTKSFNRGEC
Take B2: the “EC50, PD-1报告基因法” value in test [1] came to 1.3 µg/mL.

B3: 抗PD-1/IL-8-1 (bispecific antibody, human IgG4 S228P, kappa)
heavy: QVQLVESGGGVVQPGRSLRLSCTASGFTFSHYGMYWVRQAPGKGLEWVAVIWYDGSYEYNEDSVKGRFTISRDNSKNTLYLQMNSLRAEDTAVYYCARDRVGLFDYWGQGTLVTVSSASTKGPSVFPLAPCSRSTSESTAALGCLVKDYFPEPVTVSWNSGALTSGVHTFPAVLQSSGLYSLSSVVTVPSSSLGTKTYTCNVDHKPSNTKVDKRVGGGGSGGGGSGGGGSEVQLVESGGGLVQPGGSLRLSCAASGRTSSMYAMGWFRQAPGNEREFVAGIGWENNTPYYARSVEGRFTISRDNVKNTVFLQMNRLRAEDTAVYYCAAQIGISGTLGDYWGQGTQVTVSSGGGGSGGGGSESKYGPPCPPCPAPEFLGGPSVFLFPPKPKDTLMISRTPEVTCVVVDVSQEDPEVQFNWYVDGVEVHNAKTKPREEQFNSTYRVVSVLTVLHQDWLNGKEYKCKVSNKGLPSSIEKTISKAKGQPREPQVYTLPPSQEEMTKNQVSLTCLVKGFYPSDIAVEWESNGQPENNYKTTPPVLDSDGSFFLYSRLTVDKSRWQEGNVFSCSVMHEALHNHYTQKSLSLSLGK
light: EIVLTQSPGTLSLSPGERATLSCRASQSISSSYLAWYQQKPGQAPRLLIYGPSSRATGIPDRFSGSGSGTDFTLTISRLEPEDFAVYYCQQYAGSLTFGPGTKVDIKRTVAAPSVFIFPPSDEQLKSGTASVVCLLNNFYPREAKVQWKVDNALQSGNSQESVTEQDSKDSTYSLSSTLTLSKADYEKHKVYACEVTHQGLSSPVTKSFNRGEC
notes: also called antiPD-1/IL-8-1
As for B3, the binding result in test [2] is recorded as “binds”.

B4: 抗PD-1/TGF-β-1 (bispecific antibody, human IgG4 S228P, kappa)
heavy: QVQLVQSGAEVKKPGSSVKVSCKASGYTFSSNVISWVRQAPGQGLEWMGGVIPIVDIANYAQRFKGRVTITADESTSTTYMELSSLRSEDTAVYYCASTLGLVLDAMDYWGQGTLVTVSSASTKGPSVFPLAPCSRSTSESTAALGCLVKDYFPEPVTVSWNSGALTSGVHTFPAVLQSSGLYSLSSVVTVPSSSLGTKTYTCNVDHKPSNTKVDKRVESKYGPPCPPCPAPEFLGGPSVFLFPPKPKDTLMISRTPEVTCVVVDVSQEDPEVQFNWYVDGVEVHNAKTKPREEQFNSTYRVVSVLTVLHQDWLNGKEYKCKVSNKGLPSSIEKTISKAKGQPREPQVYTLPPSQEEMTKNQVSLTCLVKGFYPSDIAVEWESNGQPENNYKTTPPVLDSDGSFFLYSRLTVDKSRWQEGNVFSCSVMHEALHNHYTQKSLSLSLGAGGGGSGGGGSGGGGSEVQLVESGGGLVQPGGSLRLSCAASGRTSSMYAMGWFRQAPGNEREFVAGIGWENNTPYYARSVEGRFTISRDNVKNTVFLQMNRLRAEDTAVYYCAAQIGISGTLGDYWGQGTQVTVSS
light: ETVLTQSPGTLSLSPGERATLSCRASQSLGSSYLAWYQQKPGQAPRLLIYGASSRAPGIPDRFSGSGSGTDFTLTISRLEPEDFAVYYCQQYADSPITFGQGTRLEIKRTVAAPSVFIFPPSDEQLKSGTASVVCLLNNFYPREAKVQWKVDNALQSGNSQESVTEQDSKDSTYSLSSTLTLSKADYEKHKVYACEVTHQGLSSPVTKSFNRGEC
notes: also called antiPD-1/TGF-β-1
On to B4, for which the “EC50, PD-1报告基因法” value in test [1] was determined as 1.7 µg/mL. A half-maximal effect in test [2] (EC50) was put at 0.17 µg/mL.

B5: 抗PD-1/TGF-β-2 (bispecific antibody, human IgG4 S228P, kappa)
heavy: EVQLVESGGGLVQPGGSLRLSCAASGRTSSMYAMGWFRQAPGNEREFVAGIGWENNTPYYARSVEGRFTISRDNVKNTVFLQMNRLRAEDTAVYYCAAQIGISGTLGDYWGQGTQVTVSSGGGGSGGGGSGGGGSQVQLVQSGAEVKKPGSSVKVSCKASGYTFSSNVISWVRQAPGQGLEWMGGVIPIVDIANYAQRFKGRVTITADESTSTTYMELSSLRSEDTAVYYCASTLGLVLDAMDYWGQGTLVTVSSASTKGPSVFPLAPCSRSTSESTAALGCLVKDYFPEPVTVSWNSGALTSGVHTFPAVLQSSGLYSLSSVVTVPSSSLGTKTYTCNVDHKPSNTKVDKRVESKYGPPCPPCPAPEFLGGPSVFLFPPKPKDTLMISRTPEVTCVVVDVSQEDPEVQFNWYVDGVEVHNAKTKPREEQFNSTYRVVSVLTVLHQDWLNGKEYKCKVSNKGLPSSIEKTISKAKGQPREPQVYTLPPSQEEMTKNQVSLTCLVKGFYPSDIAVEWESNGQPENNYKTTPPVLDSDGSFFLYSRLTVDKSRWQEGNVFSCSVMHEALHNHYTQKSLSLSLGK
light: ETVLTQSPGTLSLSPGERATLSCRASQSLGSSYLAWYQQKPGQAPRLLIYGASSRAPGIPDRFSGSGSGTDFTLTISRLEPEDFAVYYCQQYADSPITFGQGTRLEIKRTVAAPSVFIFPPSDEQLKSGTASVVCLLNNFYPREAKVQWKVDNALQSGNSQESVTEQDSKDSTYSLSSTLTLSKADYEKHKVYACEVTHQGLSSPVTKSFNRGEC
notes: also called antiPD-1/TGF-β-2
B5: the binding result in test [2] was “binds”.

B6: 抗PD-1/TGF-β-3 (bispecific antibody, human IgG4 S228P, kappa)
heavy: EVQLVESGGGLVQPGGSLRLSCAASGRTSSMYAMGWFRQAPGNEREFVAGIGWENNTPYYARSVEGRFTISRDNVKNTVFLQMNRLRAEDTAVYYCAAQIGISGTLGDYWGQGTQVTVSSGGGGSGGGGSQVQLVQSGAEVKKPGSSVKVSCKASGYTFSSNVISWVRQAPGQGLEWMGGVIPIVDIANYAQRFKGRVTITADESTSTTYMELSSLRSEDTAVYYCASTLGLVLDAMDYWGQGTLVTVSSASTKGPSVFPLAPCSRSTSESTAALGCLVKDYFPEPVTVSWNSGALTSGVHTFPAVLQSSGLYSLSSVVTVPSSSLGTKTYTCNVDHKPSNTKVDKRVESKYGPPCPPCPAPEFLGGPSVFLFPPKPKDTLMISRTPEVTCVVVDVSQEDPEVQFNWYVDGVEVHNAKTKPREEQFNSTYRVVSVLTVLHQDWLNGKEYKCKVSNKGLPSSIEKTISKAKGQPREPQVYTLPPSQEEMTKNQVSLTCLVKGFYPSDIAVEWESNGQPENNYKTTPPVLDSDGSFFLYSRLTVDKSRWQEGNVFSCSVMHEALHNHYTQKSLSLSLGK
light: ETVLTQSPGTLSLSPGERATLSCRASQSLGSSYLAWYQQKPGQAPRLLIYGASSRAPGIPDRFSGSGSGTDFTLTISRLEPEDFAVYYCQQYADSPITFGQGTRLEIKRTVAAPSVFIFPPSDEQLKSGTASVVCLLNNFYPREAKVQWKVDNALQSGNSQESVTEQDSKDSTYSLSSTLTLSKADYEKHKVYACEVTHQGLSSPVTKSFNRGEC
notes: also called antiPD-1/TGF-β-3
Regarding B6, the binding result in test [2] is “binds”.

The values are drawn from patent publication CN115558029A (LILING BIOLOGICAL PHARMACEUTICAL SUZHOU CO LTD, dated 2023).
